For two molecules, Ka results are on record in patent publication US20100287629A1 (published 2010).

The test deals with T1, native human CD4 on the cell surface (human, UniProt P01730 26-458).
T1 construct: whole, on cells; also called CD4 on SupT1 cells; CD4 on human PBL/PBMC
The test can be described thus: flow cytometry on SupT1 cells; half-maximal fluorescence, four-parameter fit. The method, then: The avidity and affinity determinations described above were performed with recombinant CD4 (rCD4). To determine the avidity of the human monoclonal antibodies for native CD4 (nCD4). […] Specifically, serial dilutions of antibody were incubated with SupT1 cells for 6 hr on ice, washed and detected any bound antibody with FITC-goat anti-human Fcγ.
*Human monoclonal antibodies were incubated in serial dilutions with SupT1 cells for 6 hrs, washed twice and incubated with FITC-conjugated goat anti-human Fcγ antisera, washed and fixed. The Ka was calculated from the concentration of antibody yielding one-half of the maximum fluorescence as determined from a four-parameter fit.
(In flow cytometry, cells or beads pass a laser one at a time.)

B1: human IgG kappa anti-CD4 monoclonal antibody 6G5 (antibody, V domains shown)
VH: QVQLQQWGAGLLKPSETLSLTCAVYGGSFSGYYWSWIRQPPGKGLEWIGEINHSGSTNYNPSLKSRVTISVDTSKNQFSLKLSSVTAADTAVYYCARVINWFDPWGQGTLVTVSS
VL: DIQMTQSPSSVSASVGDRVTITCRASQDISSWLAWYQHKPGKAPKLLIYAASSLQSGVPSRFSGSGSGTDFTLTISSLQPEDFATYYCQQANSFPYTFGQGTKLEIK
notes: Human IgG1 kappa from hybridoma of an HC2/KCo5/JHD/JCKD mouse; CDR3 VINWFDP (VH4-34, JH5); l.c; also called 6G5.1
B1 returned a Ka of 1.9e+09 M⁻¹.

B2: human IgG kappa anti-CD4 monoclonal antibody 10C5 (antibody, V domains shown)
VH: B1 VH
VL: B1 VL
notes: Human IgG1 kappa from hybridoma of an HC2/KCo5/JHD/JCKD mouse; CDR3 VINWFDP (VH4-34, JH5); l.c; same primary B cell as 6G5; also called 10C5.6
Molecule B2 had a Ka of 1.8e+09 M⁻¹.
